From PMC7838286

Experiments:
[1] = target: Cp150 homodimer (Cp149 variant with a C-terminal cysteine) (Hepatitis B Virus); experiment: cryo-EM structure; capsids left after treatment of co-assembled capsids with 3 M urea and 100 uM EDTA; C1 symmetry throughout; complete capsid 6.2 Å, holey capsids 10.8 Å and 12.9 Å
[2] = target: Cp150 homodimer (Cp149 variant with a C-terminal cysteine) (Hepatitis B Virus); experiment: SEC; 2 uM Cp150Bo with 4 uM holey capsid, 300 mM NaCl, 23 °C, 24 h; 2 uM Cp150Bo alone with 300 mM NaCl as control; Superose 6 with absorbance at 280 and 504 nm and fluorescence at 512 nm

Substance	stoichiometry N [1]	Cp150Bo dimers added per holey capsid (dimers per holey capsid) [2]
Cp150 homodimer (Cp149 variant with a C-terminal cysteine) (domain or fragment)	120 dimers	
Cp150Bo homodimer (BODIPY-FL-labeled Cp150) (domain or fragment)		16
